# According to patent US20210355220A1 (TIKCRO TECHNOLOGIES, published 2021):
# T1: hPDL2 on HEK293 cells (human, UniProt Q9BQ51 20-273)
# T1 construct: whole, on cells
# T1 sequence (looked up): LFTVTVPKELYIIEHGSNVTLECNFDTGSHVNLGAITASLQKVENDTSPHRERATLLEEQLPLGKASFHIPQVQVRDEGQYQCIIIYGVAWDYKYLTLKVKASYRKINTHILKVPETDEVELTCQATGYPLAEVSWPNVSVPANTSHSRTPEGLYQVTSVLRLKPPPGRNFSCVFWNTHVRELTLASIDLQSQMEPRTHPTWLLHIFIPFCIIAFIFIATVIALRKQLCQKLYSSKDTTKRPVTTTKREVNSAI
# T2: hICOS on HEK293 cells (human, UniProt Q9Y6W8 21-199)
# T2 construct: whole, on cells
# T2 sequence (looked up): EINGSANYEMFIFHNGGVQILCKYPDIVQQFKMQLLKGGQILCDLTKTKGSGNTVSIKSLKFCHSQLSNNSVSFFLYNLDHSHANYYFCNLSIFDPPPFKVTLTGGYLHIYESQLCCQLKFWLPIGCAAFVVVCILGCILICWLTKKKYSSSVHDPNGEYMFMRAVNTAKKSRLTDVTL
# What was measured:
# [1] = biological target: T3, human CTLA-4 expressed on cells (human, UniProt P16410 36-223); assay: flow cytometry on HEK293-hCTLA-4 cells
# T3 construct: whole, on cells; On stably or transiently transfected HEK293 cells; also called hCTLA-4; HEK293-hCTLA-4 cells
# T3 sequence (P16410 36-223): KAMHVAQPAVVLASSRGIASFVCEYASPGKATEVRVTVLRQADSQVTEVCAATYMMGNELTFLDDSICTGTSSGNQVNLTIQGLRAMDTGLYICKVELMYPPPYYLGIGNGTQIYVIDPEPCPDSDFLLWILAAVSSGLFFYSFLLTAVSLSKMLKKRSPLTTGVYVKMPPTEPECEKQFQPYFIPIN
# Protocol: (§1) To test the binding of antibodies to CTLA-4 under more physiological conditions, the binding of CTLA-4 antibodies to cell-surface CTLA-4 was tested. […] The surface expression of hCTLA-4 in the obtained cell line was tested using a commercial anti-CTLA-4 antibody and compared to the parent cell line (HEK293 without transfection). […] The anti-CTLA-4 antibodies were incubated in serial dilution concentrations with the HEK293-hCTLA-4 cells for 1 hour on ice. Following a wash step, an anti-human antibody conjugated to ALEXA FLUOR® 647® was added for an additional hour. The cells were washed, and propidium iodide (PI) was added to exclude dead cells. The fluorescent signal was measured using FACS and analyzed. Dead cells were removed based on the PI signal. The population was gated based on forward and side scatter (FSC and SSC) parameters, and doublets were removed. The Median Fluorescent Intensity (MFI) of the appropriate channel was calculated for the live single cells from each group. The MFI was plotted versus antibody concentration in Prism software (V6.01) and kinetic parameters were obtained using a curve fit dose response function with four parameters. […] The lower EC₅₀ values indicate increased binding affinity to cell surface hCTLA-4.
# [2] = biological target: T4, CTLA-4-his reduced with 100 mM DTT to its monomeric form (human, UniProt P16410 36-162); assay: ELISA, plate coated with DTT-reduced CTLA-4-his (monomer), anti-human-HRP, OD450; the box beside the curves does not name the quantity, the value lies at the half-maximal point of the curve (OD450 0.2 to 1.4)
# T4 construct: Same bought protein as the dimer, reduced with DTT before coating; also called monomer hCTLA-4; not shown: his tag
# T4 sequence (P16410 36-162 limits assumed): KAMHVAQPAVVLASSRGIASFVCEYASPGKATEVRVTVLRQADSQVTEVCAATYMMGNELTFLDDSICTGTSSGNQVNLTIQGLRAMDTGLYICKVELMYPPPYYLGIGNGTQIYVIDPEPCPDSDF
# Protocol: hCTLA-4 can exist in monomer and dimer forms on the cell surface. […] The recombinant protein was incubated for 10 minutes with 100 mM DTT to reduce the protein to its monomeric form. […] The plates were coated overnight at 4° C., followed by a wash step and blocking with 20% milk for 1 hour at 37° C. […] The plate was washed and a secondary anti-human-HRP antibody (Jackson) was added at a 1:5000 dilution. A TMB solution was added, followed by stop solution and the OD at 450 nm was measured. Data was analyzed with Prism software.
# [3] = biological target: T3, human CTLA-4 expressed on cells; assay: flow cytometry, inhibition of CD86-mFC binding to HEK293-hCTLA-4 cells, reference ipilimumab
# Protocol: As part of their activity, CTLA-4 therapeutic antibodies block the interaction between CTLA-4 and its ligands, leaving the ligands free for CD28 binding. […] First, HEK293-hCTLA-4 cells were incubated with the tested antibodies in a serial dilution for 30 minutes. […] The fluorescence was measured and analyzed. The experiment was performed in triplicate and is representative of three biological repeats.
# hPDL1 on HEK293 cells = biological target: T5, hPDL1 on HEK293 cells (human, UniProt Q9NZQ7 19-290); assay: flow cytometry on transfected HEK293 cells
# T5 construct: whole, on cells
# T5 sequence (Q9NZQ7 19-290): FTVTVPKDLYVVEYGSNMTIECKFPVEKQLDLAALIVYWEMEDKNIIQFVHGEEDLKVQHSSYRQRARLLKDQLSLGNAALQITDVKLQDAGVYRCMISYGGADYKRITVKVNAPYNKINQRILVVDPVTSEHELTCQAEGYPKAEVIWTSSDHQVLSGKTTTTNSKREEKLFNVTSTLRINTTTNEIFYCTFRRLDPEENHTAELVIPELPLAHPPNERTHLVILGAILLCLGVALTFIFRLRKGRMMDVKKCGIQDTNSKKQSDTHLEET
# Protocol: (§2) HEK293 cells were transfected with expression vectors of the following immune-related proteins: hBTLA, hICOS, hCD28, hPDL1, hPD1, hPDL2, and hCTLA-4. Over-expression of the proteins was verified using commercial antibodies against each target. […] Antibody binding to cells was then detected using flow cytometry. Cells that were incubated only with the secondary antibody were used as a background control. […] Note that “+” indicates binding above the background level and “-” indicate no binding as compared to the background level.
# hCD28 on HEK293 cells = biological target: T6, hCD28 on HEK293 cells (human, UniProt P10747 19-220); assay: flow cytometry on transfected HEK293 cells
# T6 construct: whole, on cells
# Protocol: as §2
# hBTLA on HEK293 cells = biological target: T7, hBTLA on HEK293 cells (human, UniProt Q7Z6A9 31-289); assay: flow cytometry on transfected HEK293 cells
# T7 construct: whole, on cells
# Protocol: as §2
# [4] = biological target: T3, human CTLA-4 expressed on cells; assay: flow cytometry on transfected HEK293 cells
# Protocol: as §2
# hPD1 on HEK293 cells = biological target: T8, hPD1 on HEK293 cells (human, UniProt Q15116 25-288); assay: flow cytometry on transfected HEK293 cells
# T8 construct: whole, on cells
# T8 sequence (Q15116 25-288): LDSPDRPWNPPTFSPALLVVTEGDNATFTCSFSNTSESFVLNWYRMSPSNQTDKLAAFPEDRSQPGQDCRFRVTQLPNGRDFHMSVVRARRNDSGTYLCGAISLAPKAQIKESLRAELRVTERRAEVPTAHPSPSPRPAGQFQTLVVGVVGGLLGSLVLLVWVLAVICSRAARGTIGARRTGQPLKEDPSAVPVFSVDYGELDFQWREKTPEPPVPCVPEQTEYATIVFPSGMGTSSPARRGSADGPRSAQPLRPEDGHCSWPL
# Protocol: as §2
# hPDL2 on HEK293 cells = biological target: T1, hPDL2 on HEK293 cells; assay: flow cytometry on transfected HEK293 cells
# Protocol: as §2
# hICOS on HEK293 cells = biological target: T2, hICOS on HEK293 cells; assay: flow cytometry on transfected HEK293 cells
# Protocol: as §2
# [5] = biological target: T3, human CTLA-4 expressed on cells; assay: cell-based or functional assay
# [6] = biological target: T3, human CTLA-4 expressed on cells; assay: flow cytometry on HEK293-hCTLA-4 cells, reference ipilimumab
# Protocol: as §1
# [7] = biological target: T9, Pig (Sus scrofa) CTLA-4 on HEK293 cells (Sus scrofa, UniProt Q9MYX7 36-223); assay: flow cytometry on HEK293 cells transiently expressing pig CTLA-4, reference ipilimumab
# T9 construct: whole, on cells; also called pig CTLA-4
# T9 sequence (Q9MYX7 36-223): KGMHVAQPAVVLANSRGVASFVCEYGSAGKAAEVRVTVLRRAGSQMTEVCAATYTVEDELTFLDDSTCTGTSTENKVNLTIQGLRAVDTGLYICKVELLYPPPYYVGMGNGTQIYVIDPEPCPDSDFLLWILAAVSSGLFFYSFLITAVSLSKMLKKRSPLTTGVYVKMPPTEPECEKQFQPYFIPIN
# Protocol: Macaque (Macaca fascicularis), pig (Sus scrofa) and mouse (Mus musculus) CTLA-4 proteins were transiently expressed on the surface of HEK293 cells. […] Binding was measured using FACS and analyzed.
binder,measurement,setting,value
"Ab55h (antibody, V domains shown, Human form, compared with an hIgG1 isotype control) VH: QVQLQESGPGLVKPSETLSLTCAVSGYSISGDYYWGWIRQPPGKGLEWIGSIYHSGYTYYNPSLKSRVTISVDTSKNQFSLKLSSVTAADTAVYYCARDSGWYVIAFDYWGQGTLVTVSS VL: EIVMTQSPATLSVSPGERATLSCRASQSVSSNLAWYQEKPGQAPRLLIYGASTRATGIPARFSGSGSGTEFTLTISSLQSEDFAVYYCQQYNNWPPLTFGGGTKVEIK",EC50,[1],240 pM
same,EC50,[2],2 pM
same,Ratio Ipilimumab:Ab55h of IC50,[3],2.2 fold
same,MFI,hPDL1 on HEK293 cells,69 MFI
same,binding result,hPDL1 on HEK293 cells,no binding
same,MFI,hCD28 on HEK293 cells,66 MFI
same,binding result,hCD28 on HEK293 cells,no binding
same,MFI,hBTLA on HEK293 cells,68 MFI
same,binding result,hBTLA on HEK293 cells,no binding
same,MFI,[4],3290 MFI
same,MFI,hPD1 on HEK293 cells,72 MFI
same,binding result,hPD1 on HEK293 cells,no binding
same,MFI,hPDL2 on HEK293 cells,70 MFI
same,binding result,hPDL2 on HEK293 cells,no binding
same,MFI,hICOS on HEK293 cells,67 MFI
same,binding result,hICOS on HEK293 cells,no binding
same,SHP1 reporter IC50,[5],59 pM
same,"SHP1 reporter IC50, Ratio Ab55h:Ipilimumab",[5],4.5 fold
same,Ratio Ipilimumab:Ab55h of EC50,[6],6.1 fold
same,Ratio Ipilimumab:Ab55h of EC50,[7],5590 fold
